Measured values reported in patent US20240190968A1 (HEFEI TG IMMUNOPHARMA, published 2024).

T1: B7H6 protein overexpressed in HL60 cells (human, UniProt Q68D85 25-454)
T1 construct: Full-length entry expressed from a lentiviral vector; also called HL60-B7H6
T1 sequence: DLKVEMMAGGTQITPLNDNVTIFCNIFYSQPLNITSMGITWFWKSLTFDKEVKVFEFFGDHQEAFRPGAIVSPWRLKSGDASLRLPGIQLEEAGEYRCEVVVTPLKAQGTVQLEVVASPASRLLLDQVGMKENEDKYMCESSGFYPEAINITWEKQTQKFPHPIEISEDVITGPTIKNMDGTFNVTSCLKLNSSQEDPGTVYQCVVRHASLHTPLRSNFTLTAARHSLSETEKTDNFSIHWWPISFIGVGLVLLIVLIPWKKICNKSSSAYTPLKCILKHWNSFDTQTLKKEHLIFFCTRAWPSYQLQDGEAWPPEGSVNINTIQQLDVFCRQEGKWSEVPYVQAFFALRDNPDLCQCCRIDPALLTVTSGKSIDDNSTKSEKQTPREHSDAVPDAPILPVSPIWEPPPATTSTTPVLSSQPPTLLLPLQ

B1: murine antibody 12G4 (antibody, mouse IgG2a, kappa, V domains shown)
VH: EVLLQQSGPEVVKPGASVKITCKASGYTFTDYNMDWVKQSHGKSLEWIGDINPNNGGTLYNQKFRGRVTLIVDKSSSTAYMELRSLTSDDTAVYYCARSEVFYGNYADYWGQGTTLTVSS
VL: DIVLTQSPVSLAVPLGQRATISCKASQSVDYDGDSYMNWYQQKPGQPPKLLIYAASTLHSGIPVRFSGSGSGTDFTLNIHPVEEEDAASYYCQQSKEDPRTFGGGTKLEIKR
notes: also called murine 12G4
B2: humanized antibody h12G4 (antibody, human IgG1, kappa, V domains shown)
VH: EVQLVQSGAEVKKPGASVKVSCKASGYTFTDYNMDWVRQAPGKGLEWIGDINPNNGGTLYNQKFRGRVTLTVDKSISTAYMELSRLRSDDTAVYYCARSEVFYGNYADYWGQGTTVTVSS
VL: DIVLTQTPLSLSVTPGQPASISCKASQSVDYDGDSYMNWYLQKPGQPPQLLIYAASTLHSGVPDRFSGSGSGTDFTLKISRVEAEDVGVYYCQQSKEDPRTFGQGTKLEIKR
notes: also called humanized 12G4
B3: humanized antibody h12F5 (antibody, human IgG1, kappa, V domains shown)
VH: EVQLVQSGAEVKKPGASVKVSCKASGYTFTSYYMYWVRQAPGQGLEWIGEINPSNGGTNFNEKFKSRVTLTVDKSISTAYMELSRLRSDDTAVYYCTRTLYYGNDWYFDVWGQGTTVTVSS
VL: EIVLTQSPDFQSVTPKEKVTITCSASSSVNYMHWYQQKPDQSPKRLIYDTSKLASGVPSRFSGSGSGTDYTLTINSLEAEDAATYYCQQWSSNPVTFGQGTKLEIKR
notes: also called humanized 12F5
B4: murine antibody 12F5 (antibody, mouse IgG2a, kappa, V domains shown)
VH: QVQLQQSGAELVKPGASVKLSCKASGYTFTSYYMYWVKQRPGQGLEWIGEINPSNGGTNFNEKFKSKATLTVDKSSSTAYMQLSSLTSEDSAVYYCTRTLYYGNDWYFDVWGAGTTVTVSS
VL: QIVLTQSPAIMSASPGEKVTMTCSASSSVNYMHWYQQKSGTSPKRWIYDTSKLASGVPARFSGSGSGTSYSLTISSMEAEDAATYYCQQWSSNPVTFGAGTKLELKR
notes: also called murine 12F5; B7H6 murine 12F5 antibody

Tests used:
[1] = target: T2, recombinant B7H6 extracellular region Fc fusion protein (human); assay: SPR, Biacore T200, B7H6-Fc amine-coupled to CM5 chip, antibody injected, 1:1 Langmuir model; murine 12G4
T2 construct: also called B7H6-Fc; B7H6-Fc fusion protein
Method: (§1) The Biacore method is widely-recognized as an objective method for detecting the mutual affinity and binding kinetics of proteins. The affinity and binding kinetics of the B7H6 antibody of the present disclosure are analyzed and characterized through Biacore T200.
(§2) The B7H6 extracellular segment Fc fusion protein (B7H6-Fc) was covalently attached to a CM5 (GE) chip using standard amino coupling methods. A series of concentration gradients of B7H6 antibody diluted in PBS were then injected with each cycle and regenerated with 10 mM NaOH solution. The antigen-antibody binding kinetics were traced for 3 minutes and the dissociation kinetics were traced for 10 minutes, and the resulting data were analyzed by a 1:1 (Langmuir) binding model using GE's BIAevaluation software.

[2] = target: T2, recombinant B7H6 extracellular region …; assay: ELISA, B7H6-Fc coated at 1 ug/mL, HRP anti-mouse secondary antibody, OD450
Method: The ELISA assay was used to detect the binding characteristics of the B7H6 antibody. The B7H6 extracellular region Fc fusion protein (B7H6-Fc) described above was coated into a 96-well plate. The signal strength after antibody addition was used to determine the binding characteristic of the antibody and B7H6.
The B7H6-Fc fusion protein (amino acid sequence as set forth in SEQ ID NO. 22) was diluted to 1 μg/mL with PBS buffer and added to a 96-well plate in a volume of 100 μL/well and left overnight at 4° C. The PBS buffer solution was sucked off from the 96-well plate. The plate was washed 6 times with PBST (pH 7.2, PBS containing 0.1% Tween 20) buffer solution. 200 μL/well PBS/10% BSA was added and incubated at 37° C. for 2 hours for blocking. The blocking solution was removed. The plate was washed 6 times with PBST. 100 μL/well B7H6 antibody to be tested was diluted to an appropriate concentration with PBST/0.05% BSA, and incubated at 37° C. for 1 h. The reaction system was removed. The plate was washed 6 times with PBST. HRP (horseradish peroxidase)-labeled anti-mouse antibody secondary antibody was diluted with PBST/0.05% BSA at 100 μL/well and incubated for 1 h at 37° ° C. The plate was washed 6 times with PBST and 80 μL/well TMB (tetramethylbenzidine) was added. […] The absorbance at […] was read with a microplate reader.

[3] = target: T1, B7H6 protein overexpressed in HL60 cells; assay: flow cytometry on HL60-B7H6 cells, Alexa-647 goat anti-mouse secondary antibody, binding ratio (%)
Method: The flow cytometry assay was used to detect the binding characteristics of B7H6 antibody and to overexpress B7H6 protein (HL60-B7H6, SEQ ID NO. 21; SEQ ID NO. 54) in HL60 cells (ATCC NO. CCL-240). The expression vector is pLVX-EF1a-B7H6-IRES-ZsGreen, and the signal strength after antibody addition is used to determine the binding characteristics of the antibody and B7H6.
HL60-B7H6 cells were diluted to 2×10⁶/mL with PBS and were added to a 1.5 ml EP tube at 100 μL/tube. Goat serum at 10 μL/tube was added thereto and was blocked at 4° C. for 30 min. The B7H6 antibody was added at 1 μg/tube and incubated for 30 min at 4° C. The EP tube was added with 1 mL of PBS and centrifuged at 3500 rpm at 4° C. for 5 min. The supernatant was discarded and the precipitate was washed once more with PBS. After centrifugation, the supernatant was discarded, and the cells were resuspended with 100 μl/tube of PBS, and 0.1 μL/tube of goat anti-mouse antibody secondary antibody (Invitrogen) labeled with Alexa-647 was added thereto, and incubated at 4° C., under the condition of avoiding light, for 30 min. The cell-containing precipitate was washed twice with PBS and the supernatant was discarded after centrifugation. The cells were resuspended with 200 μL/tube of PBS and detected by flow cytometry.

[4] = target: T2, recombinant B7H6 extracellular region …; assay: ELISA, B7H6-Fc coated at 1 ug/mL, HRP mouse anti-human IgG (Fab-specific) secondary antibody, OD450
Method: The ELISA assay was used to detect the binding characteristics of the humanized B7H6 antibody. The B7H6 extracellular region Fc fusion protein (B7H6-Fc) described above was coated into a 96-well plate. The signal strength after antibody addition was used to determine the binding characteristics of antibodies and B7H6.
The B7H6-Fc fusion protein (amino acid sequence as set forth in SEQ ID NO. 22) was diluted to 1 μg/mL with PBS buffer and added to a 96-well plate in a volume of 100 μL/well and left overnight at 4° C. The PBS buffer solution was sucked off from the 96-well plate. The plate was washed 6 times with PBST (pH 7.2, PBS containing 0.1% Tween 20) buffer solution. 200 μL/well PBS/10% BSA was added and incubated at 37° C. for 2 hours for blocking. The blocking solution was removed. The plate was washed 6 times with PBST. B7H6 antibody to be tested which diluted with PBST/0.05% BSA to an appropriate concentration was added at 100 µL/well, and incubated at 37° C. for 1 h. The reaction system was removed. The plate was washed 6 times with PBST. HRP (horseradish peroxidase)-labeled mouse anti-human IgG (Fab-specific) secondary antibody (Sigma) was diluted with PBST/0.05% BSA at 100 μL/well and incubated for 1 h at 37° C. The plate was washed 6 times with PBST, and 80 μL/well TMB (tetramethylbenzidine) was added. […] The absorbance at […] was read with a microplate reader.

[5] = target: T3, recombinant Cynomolgus monkey B7H6 extracellular region Fc fusion protein (Cynomolgus monkey); assay: ELISA, cynoB7H6-Fc coated at 1 ug/mL, HRP mouse anti-human IgG (Fab-specific) secondary antibody, OD450
T3 construct: also called cynoB7H6-Fc; cynoB7H6-Fc fusion protein
T3 sequence (chain, as listed by the source limits assumed): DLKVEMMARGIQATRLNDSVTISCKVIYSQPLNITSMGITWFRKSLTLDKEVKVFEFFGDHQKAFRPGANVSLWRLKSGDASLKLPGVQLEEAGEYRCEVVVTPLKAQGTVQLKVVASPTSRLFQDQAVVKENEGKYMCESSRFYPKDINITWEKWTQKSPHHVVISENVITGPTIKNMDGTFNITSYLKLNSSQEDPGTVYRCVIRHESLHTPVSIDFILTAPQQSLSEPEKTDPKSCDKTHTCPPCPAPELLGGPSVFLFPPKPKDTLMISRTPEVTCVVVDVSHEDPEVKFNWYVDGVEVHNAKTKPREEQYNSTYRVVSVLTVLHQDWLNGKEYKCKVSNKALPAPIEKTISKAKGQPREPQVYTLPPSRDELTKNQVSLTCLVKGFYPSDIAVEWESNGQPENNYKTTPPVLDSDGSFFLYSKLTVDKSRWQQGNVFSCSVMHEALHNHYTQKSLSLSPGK
Method: The ELISA assay was used to detect the binding characteristics of the humanized B7H6 antibody. The Cynomolgus monkey B7H6 extracellular Fc fusion protein (cynoB7H6-Fc) was coated into a 96-well plate. The signal strength after antibody addition was used to determine the binding characteristics of the antibody and monkey B7H6.
The cynoB7H6-Fc fusion protein (amino acid sequence as set forth in SEQ ID NO. 23) was diluted to 1 μg/mL with PBS buffer and added to a 96-well plate in a volume of 100 μL/well and left overnight at 4° C. The PBS buffer solution was sucked off from the 96-well plate. The plate was washed 6 times with PBST (pH 7.2, PBS containing 0.1% Tween 20) buffer solution. 200 μL/well of PBS/10% BSA was added and incubated at 37° C. for 2 hours for blocking. The blocking solution was removed. The plate was washed 6 times with PBST. B7H6 antibody to be tested which was diluted with PBST/0.05% BSA to an appropriate concentration was added at 100 µL/well, and incubated at 37° C. for 1 h. The reaction system was removed. The plate was washed 6 times with PBST. HRP (horseradish peroxidase)-labeled mouse anti-human IgG (Fab-specific) secondary antibody (Sigma) was diluted with PBST/0.05% BSA at 100 μL/well and incubated for 1 h at 37° C. […] The absorbance at […] was read with a microplate reader.

[6] = target: T1, B7H6 protein overexpressed in HL60 cells; assay: flow cytometry on HL60-B7H6 cells, Alexa-647 mouse anti-human IgG-Fc secondary antibody, binding ratio (%)
Method: The flow cytometry assay was used to detect the binding characteristics of the B7H6 antibody. The B7H6 protein (HL60-B7H6) was overexpressed in HL60 cells (ATCC No. CCL-240) (as shown in Example 3), and the signal strength after antibody addition was used to determine the binding characteristics of the antibody and B7H6.
HL60-B7H6 cells were diluted to 2×10⁶/mL with PBS and added to a 1.5 mL EP tube in a volume of 100 μL/tube. 10 μL/tube of mouse serum was added thereto and was blocked at 4° C. for 30 min. The humanized B7H6 antibody was added at 1 μg/tube and incubated for 30 min at 4° C. The EP tube was added with 1 mL of PBS and centrifuged at 3500 rpm at 4° C. for 5 min. The supernatant was discarded and the precipitate was washed once more with PBS. After centrifugation, the supernatant was discarded. The cells were resuspended with 100 μL/tube of PBS, 1 μL/tube of Alexa-647-labeled mouse anti-human IgG-Fc secondary antibody (Biolegend) was added thereto, and incubated at 4° C., under the condition of avoiding light, for 30 min. The cell-containing precipitate was washed twice with PBS and the supernatant was discarded after centrifugation. The cells were resuspended with 200 μL/tube of PBS and detected by flow cytometry.

[7] = target: T2, recombinant B7H6 extracellular region …; assay: SPR, Biacore T200, B7H6-Fc amine-coupled to CM5 chip, antibody injected, 1:1 Langmuir model; murine 12F5
Method: as §1, §2

Binder | Kd [1] | EC50 (read off the curve) [2] | EC50 (read off the curve) [3] | EC50 (read off the curve) [4] | binding result [5] | EC50 (read off the curve) [6] | Kd [7]
B1 | 0.15 nM | ~0.03 µg/mL | ~0.01 µg/mL |  |  |  | 
B2 |  |  |  | ~0.05 µg/mL | binds | ~0.05 µg/mL | 
B3 |  |  |  | ~0.02 µg/mL |  | ~0.03 µg/mL | 
B4 |  | ~0.03 µg/mL | ~0.006 µg/mL |  |  |  | 2.2 nM
